Results reported in PMC10042821, “Cryo-EM structure of human eIF5A-DHS complex reveals the molecular basis of hypusination-associated neurodegenerative disorders” (Nature Communications, 2023).
Where a chain is given by its changes, count along the chain named.

Key:
Assay in all cases: MST; His-tagged DHS variants labelled with RED-tris-NTA 2nd Generation, 8.32 nM; eIF5A titrated, sixteen dilutions 0.00175–57.5 μM; 50 mM Tris, 200 mM NaCl, 5 mM β-ME pH 8; Monolith NT.115, 40% excitation power, 60% MST power; no NAD or SPD
Settings in all cases: both partners purified
[1] = target: T1, deoxyhypusine synthase S240A, His-tagged (human, UniProt P49366 1-369, S240A, RED-tris-NTA 2nd Generation dye on the His tag)
T1 construct: human deoxyhypusine synthase, Uniprot P49366, residues 1-369, site-directed mutant of the pET24d full-length construct; also called DHS S240A; source: E. coli, purified; not shown: 6xHis, N-terminal, kept
T1 sequence (looked up): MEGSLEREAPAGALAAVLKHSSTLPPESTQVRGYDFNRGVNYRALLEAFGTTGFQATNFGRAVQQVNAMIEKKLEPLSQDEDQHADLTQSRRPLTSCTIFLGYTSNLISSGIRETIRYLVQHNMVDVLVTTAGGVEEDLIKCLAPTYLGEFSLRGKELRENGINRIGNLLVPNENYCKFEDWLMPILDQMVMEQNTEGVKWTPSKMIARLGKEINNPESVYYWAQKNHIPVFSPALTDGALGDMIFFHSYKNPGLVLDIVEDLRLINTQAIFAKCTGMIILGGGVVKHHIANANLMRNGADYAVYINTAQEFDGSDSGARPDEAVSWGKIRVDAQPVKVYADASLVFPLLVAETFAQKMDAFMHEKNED

[2] = target: T2, deoxyhypusine synthase Y176A, His-tagged (human, UniProt P49366 1-369, Y176A, RED-tris-NTA 2nd Generation dye on the His tag)
T2 construct: human deoxyhypusine synthase, Uniprot P49366, residues 1-369, site-directed mutant of the pET24d full-length construct; also called DHS Y176A; source: E. coli, purified; not shown: 6xHis, N-terminal, kept
T2 sequence (looked up): T1 sequence (looked up) with Y176A, A240S

[3] = target: T3, deoxyhypusine synthase F247A, His-tagged (human, UniProt P49366 1-369, F247A, RED-tris-NTA 2nd Generation dye on the His tag)
T3 construct: human deoxyhypusine synthase, Uniprot P49366, residues 1-369, site-directed mutant of the pET24d full-length construct; also called DHS F247A; source: E. coli, purified; not shown: 6xHis, N-terminal, kept
T3 sequence (looked up): T1 sequence (looked up) with A240S, F247A

[4] = target: T4, deoxyhypusine synthase, wild type, His-tagged (human, UniProt P49366 1-369, RED-tris-NTA 2nd Generation dye on the His tag)
T4 construct: human deoxyhypusine synthase, Uniprot P49366, residues 1-369, in pET24d with N-terminal 6xHis-tag and TEV site; also called DHS; DHS wt; source: E. coli, purified; not shown: 6xHis, N-terminal, kept
T4 sequence (looked up): T1 sequence (looked up) with A240S

Kd [1]: 2660 ± 434 nM
Kd [2]: 1090 ± 548 nM
Kd [3]: > 5 µM
Kd [4]: 40 ± 9 nM
B1: eukaryotic translation factor 5A (eIF5A-1), residues 15-151 (domain or fragment)
chain: not shown
notes: human eIF5A1, residues 15-151, from pET28-MHL (Addgene); The purification protocol removes the tag with TEV; source: E. coli, purified (HisTrap, TEV cleavage, reverse HisTrap, SEC); not shown: His tag, N-terminal, cleaved
